Source: article PMC11952320

Key:
Assay in all cases: co-IP
[1] = target: human GABAA receptor β2 subunit, epilepsy-associated variant R240T (human) (UniProt P47870)
[2] = target: human GABAA receptor β2 subunit, epilepsy-associated variant I299S (human) (UniProt P47870)
[3] = target: human GABAA receptor β2 subunit, epilepsy-associated variant I246T (human) (UniProt P47870)
[4] = target: human GABAA receptor β2 subunit, variant Q209F210delinsH (human) (UniProt P47870)

In the case of “human GABAA receptor α1 subunit (GABRA1)”, the percent reduction of the ratio of α1 to β2 after co-IP, against WT [1] is reported as 80%, the percent reduction of the ratio of α1 to β2 after co-IP, against WT [2] is reported as 30% and the percent reduction of the ratio of α1 to β2 after co-IP, against WT [3] is reported as 30%. The percent reduction of the ratio of α1 to β2 after co-IP, against WT [4] was 75%.
